Experimental data: the Human Domainome abundance scans (Beltran et al. 2025)
± gives the uncertainty stated by the source.

B1: Friend leukemia integration 1 transcription factor, residues 116 to 197; numbered along this chain, Q01543 (parent)
chain: NMTTNERRVIVPADPTLWTQEHVRQWLEWAIKEYSLMEIDTSFFQNMDGKELCKMNKEDFLRATTLYNTEVLLSHLSYLRES

Variants of: B1
Experiment: abundance fitness (aPCA) (normalised: wild type 0, dead -1); higher = more abundant; growth selection in yeast, the domain comes from the species named
Conditions: Homo sapiens

Which abundance fitness does the source give for NMTTNERRVIVPADPTLWTQEHVRQWLEWAIKEYSLMEIDTSFFQNMDGKELCKLNKEDFLRATTLYNTEVLLSHLSYLRES [M55L] here?
The abundance fitness was 0.011 ± 0.055.

Which abundance fitness does the source give for NMTTNERRVIVPADPTLWTQEHVRQWLEWAIKEYSLMEIDTSFFQNMDGKELCKCNKEDFLRATTLYNTEVLLSHLSYLRES [M55C] here?
The abundance fitness was 0.007 ± 0.15.

With NMTTNERRVIVPADPTLWTQEHVRQWLEWAIKEYSLMEIDTSFFQNMDGKELCKINKEDFLRATTLYNTEVLLSHLSYLRES [M55I] as the variant, how does the abundance fitness read?
Its abundance fitness is -0.381 ± 0.19.

With NMTTNERRVIVPADPTLWTQEHVRQWLEWAIKEYSLMEIDTSFFQNMDGKELRKMNKEDFLRATTLYNTEVLLSHLSYLRES [C53R] as the variant, how does the abundance fitness read?
Its abundance fitness is -0.72 ± 0.11.

With NMTTNERRVIVPADPTLWTQEHVRQWLEWAIKEYSLMEIDTSFFQNMDGKELFKMNKEDFLRATTLYNTEVLLSHLSYLRES [C53F] as the variant, how does the abundance fitness read?
Its abundance fitness is 0.031 ± 0.13.

For NMTTNERRVIVPADPTLWTQEHVRQWLEWAIKEYSLMEIDTSFFQNMDGKELEKMNKEDFLRATTLYNTEVLLSHLSYLRES [C53E], which abundance fitness is on record?
Its abundance fitness is -0.409 ± 0.13.

Which abundance fitness does the source give for NMTTNERRVIVPADPTLWTQEHVRQWLEWAIKEYSLMEIDTSFFQNMDGKELYKMNKEDFLRATTLYNTEVLLSHLSYLRES [C53Y] here?
Its abundance fitness is -0.377 ± 0.23.

Which abundance fitness does the source give for NMTTNERRVIVPADPTLWTQEHVRQWLEWAIKEYSLMEIDTSFFQNMDGKELPKMNKEDFLRATTLYNTEVLLSHLSYLRES [C53P] here?
Its abundance fitness is -0.905 ± 0.17.

With NMTTNERRVIVPADPTLWTQEHVRQWLEWAIKEYSLMEIDTSFFQNMDGKELSKMNKEDFLRATTLYNTEVLLSHLSYLRES [C53S] as the variant, how does the abundance fitness read?
Its abundance fitness is -0.213 ± 0.073.

Which abundance fitness does the source give for NMTTNERRVIVPADPTLWTQEHVRQWLEWAIKEYSLMEIDTSFFQNMDGKELGKMNKEDFLRATTLYNTEVLLSHLSYLRES [C53G] here?
The abundance fitness was -0.142 ± 0.077.

Which abundance fitness does the source give for NMTTNERRVIVPADPTLWTQEHVRQWLEWAIKEYSLMEIDTSFFQNMDGKELHKMNKEDFLRATTLYNTEVLLSHLSYLRES [C53H] here?
The abundance fitness was -0.324 ± 0.31.

With NMTTNERRVIVPADPTLWTQEHVRQWLEWAIKEYSLMEIDTSFFQNMDGKELVKMNKEDFLRATTLYNTEVLLSHLSYLRES [C53V] as the variant, how does the abundance fitness read?
The abundance fitness was -0.017 ± 0.07.

With NMTTNERRVIVPADPTLWTQEHVRQWLEWAIKEYSLMEIDTSFFQNMDGKELMKMNKEDFLRATTLYNTEVLLSHLSYLRES [C53M] as the variant, how does the abundance fitness read?
Its abundance fitness is -0.134 ± 0.092.

Which abundance fitness does the source give for NMTTNERRVIVPADPTLWTQEHVRQWLEWAIKEYSLMEIDTSFFQNMDGKELKKMNKEDFLRATTLYNTEVLLSHLSYLRES [C53K] here?
Its abundance fitness is -0.553 ± 0.16.

With NMTTNERRVIVPADPTLWTQEHVRQWLEWAIKEYSLMEIDTSFFQNMDGKELLKMNKEDFLRATTLYNTEVLLSHLSYLRES [C53L] as the variant, how does the abundance fitness read?
The abundance fitness was 0.153 ± 0.047.

For NMTTNERRVIVPADPTLWTQEHVRQWLEWAIKEYSLMEIDTSFFQNMDGKELWKMNKEDFLRATTLYNTEVLLSHLSYLRES [C53W], which abundance fitness is on record?
The abundance fitness was -0.463 ± 0.14.

For NMTTNERRVIVPADPTLWTQEHVRQWLEWAIKEYSLMEIDTSFFQNMDGKELTKMNKEDFLRATTLYNTEVLLSHLSYLRES [C53T], which abundance fitness is on record?
Its abundance fitness is -0.048 ± 0.088.

Which abundance fitness does the source give for NMTTNERRVIVPADPTLWTQEHVRQWLEWAIKEYSLMEIDTSFFQNMDGKELNKMNKEDFLRATTLYNTEVLLSHLSYLRES [C53N] here?
Its abundance fitness is -0.197 ± 0.12.

Which abundance fitness does the source give for NMTTNERRVIVPADPTLWTQEHVRQWLEWAIKEYSLMEIDTSFFQNMDGKELQKMNKEDFLRATTLYNTEVLLSHLSYLRES [C53Q] here?
The abundance fitness was -0.099 ± 0.092.

Which abundance fitness does the source give for NMTTNERRVIVPADPTLWTQEHVRQWLEWAIKEYSLMEIDTSFFQNMDGKELAKMNKEDFLRATTLYNTEVLLSHLSYLRES [C53A] here?
Its abundance fitness is -0.222 ± 0.096.

Which abundance fitness does the source give for NMTTNERRVIVPADPTLWTQEHVRQWLEWAIKEYSLMEIDTSFFQNMDGKLLCKMNKEDFLRATTLYNTEVLLSHLSYLRES [E51L] here?
The abundance fitness was -0.135 ± 0.051.

For NMTTNERRVIVPADPTLWTQEHVRQWLEWAIKEYSLMEIDTSFFQNMDGKVLCKMNKEDFLRATTLYNTEVLLSHLSYLRES [E51V], which abundance fitness is on record?
Its abundance fitness is -0.127 ± 0.078.

Which abundance fitness does the source give for NMTTNERRVIVPADPTLWTQEHVRQWLEWAIKEYSLMEIDTSFFQNMDGKHLCKMNKEDFLRATTLYNTEVLLSHLSYLRES [E51H] here?
Its abundance fitness is 0.068 ± 0.12.

With NMTTNERRVIVPADPTLWTQEHVRQWLEWAIKEYSLMEIDTSFFQNMDGKGLCKMNKEDFLRATTLYNTEVLLSHLSYLRES [E51G] as the variant, how does the abundance fitness read?
The abundance fitness was -0.058 ± 0.068.

Which abundance fitness does the source give for NMTTNERRVIVPADPTLWTQEHVRQWLEWAIKEYSLMEIDTSFFQNMDGKYLCKMNKEDFLRATTLYNTEVLLSHLSYLRES [E51Y] here?
Its abundance fitness is -0.679 ± 0.33.

For NMTTNERRVIVPADPTLWTQEHVRQWLEWAIKEYSLMEIDTSFFQNMDGKQLCKMNKEDFLRATTLYNTEVLLSHLSYLRES [E51Q], which abundance fitness is on record?
Its abundance fitness is 0.03 ± 0.08.

For NMTTNERRVIVPADPTLWTQEHVRQWLEWAIKEYSLMEIDTSFFQNMDGKRLCKMNKEDFLRATTLYNTEVLLSHLSYLRES [E51R], which abundance fitness is on record?
The abundance fitness was -0.084 ± 0.065.

With NMTTNERRVIVPADPTLWTQEHVRQWLEWAIKEYSLMEIDTSFFQNMDGKPLCKMNKEDFLRATTLYNTEVLLSHLSYLRES [E51P] as the variant, how does the abundance fitness read?
Its abundance fitness is -0.766 ± 0.17.

For NMTTNERRVIVPADPTLWTQEHVRQWLEWAIKEYSLMEIDTSFFQNMDGKTLCKMNKEDFLRATTLYNTEVLLSHLSYLRES [E51T], which abundance fitness is on record?
Its abundance fitness is 0.034 ± 0.082.

With NMTTNERRVIVPADPTLWTQEHVRQWLEWAIKEYSLMEIDTSFFQNMDGKMLCKMNKEDFLRATTLYNTEVLLSHLSYLRES [E51M] as the variant, how does the abundance fitness read?
The abundance fitness was -0.1 ± 0.11.

Which abundance fitness does the source give for NMTTNERRVIVPADPTLWTQEHVRQWLEWAIKEYSLMEIDTSFFQNMDGKFLCKMNKEDFLRATTLYNTEVLLSHLSYLRES [E51F] here?
Its abundance fitness is -0.243 ± 0.22.

With NMTTNERRVIVPADPTLWTQEHVRQWLEWAIKEYSLMEIDTSFFQNMDGKKLCKMNKEDFLRATTLYNTEVLLSHLSYLRES [E51K] as the variant, how does the abundance fitness read?
Its abundance fitness is -0.01 ± 0.094.

Which abundance fitness does the source give for NMTTNERRVIVPADPTLWTQEHVRQWLEWAIKEYSLMEIDTSFFQNMDGKWLCKMNKEDFLRATTLYNTEVLLSHLSYLRES [E51W] here?
Its abundance fitness is -0.477 ± 0.08.

For NMTTNERRVIVPADPTLWTQEHVRQWLEWAIKEYSLMEIDTSFFQNMDGKILCKMNKEDFLRATTLYNTEVLLSHLSYLRES [E51I], which abundance fitness is on record?
The abundance fitness was -0.259 ± 0.23.
